Test results from paper PMC8441738 (MedComm, 2021).

Molecular target: recombinant SARS-CoV-2 RBD-Fc (Severe acute respiratory syndrome …, UniProt P0DTC2)
Test: ELISA; natural RBD-Fc immobilised on ELISA plates

B1: MA1 monoclonal antibody (antibody, V domains shown)
VH: QVQLKESGPGLVAPSQSLSITCTVSGFSLSDYSISWIRQPPGKGLEWLGVIWGGGSTYYNSALKSRLSISKDNSKSQVFLKMNSLQTDDTAMYYCAKHPLYYGSNSDGYYAMDYWGQGTSVTVSS
VL: DIVMTQSHKFMSTSVGDRVSITCKASQDVGIVVAWYQQKPGQSPKLLIYWASTRHTGVPDRFTGSGSGTDFTLTISNVQSEDLADYFCQQYSSYPLTFGGGTKLEIK
notes: also called group I mAb; source: hybridoma cell line or transfection of linear expression cassettes
**Q.** Does B1 bind?
**A.** Result: binds

B2: MA5 monoclonal antibody (antibody, V domains shown)
VH: EVMLVESGGGLVKPGGSLKLSCAASGFMFSRYAMSWVRQTPEKRLEWVATISSGGSYTYYPDSVKGRFTMSRDNAKNTLYLQMSSLRSEDTAMYNCARHDGNYVDYAMDYWGQGTSVTVSS
VL: QIVLTQSPAIMSASLGEEITLTCSASSSVSHMHWYQQKSGTSPKLLIYSTFNLASGVPSRFSGSGSGTFYSLTISSVEAEDAADYYCHQWSSWTFGGGTKLEIK
notes: also called group IV mAb; source: hybridoma cell line or transfection of linear expression cassettes
**Q.** Does B2 bind?
**A.** Result: binds
